From paper PMC9482650, “Quantitative fragmentomics allow affinity mapping of interactomes” (Nature Communications, 2022)

Columns and labels:
Test in all cases: holdup assay
Parameters in all cases: key: below the threshold = too weak to quantify, mostly under pKd 3.1 to 4
Conditions in all cases: plain residues with an end cap or a label only (N-terminal biotin on a linker: ado-ado)
FRMPD2_3, Q68DX3 = biological target: FRMPD2_3, Q68DX3
LNX1_3, Q8TBB1 = biological target: LNX1_3, Q8TBB1
NHERF3_4, Q5T2W1 = biological target: T1, NHERF3_4, Q5T2W1
T1 sequence (Q5T2W1 373-468, limits assumed, looked up): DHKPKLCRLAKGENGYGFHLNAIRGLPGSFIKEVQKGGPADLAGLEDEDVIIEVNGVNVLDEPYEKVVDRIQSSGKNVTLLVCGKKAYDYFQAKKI

Inadl_5, Q8NI35 = biological target: Inadl_5, Q8NI35
Inadl_3, Q8NI35 = biological target: Inadl_3, Q8NI35
RADIL, Q96JH8 = biological target: T2, RADIL, Q96JH8
T2 sequence (Q96JH8 971-1071, limits assumed, looked up): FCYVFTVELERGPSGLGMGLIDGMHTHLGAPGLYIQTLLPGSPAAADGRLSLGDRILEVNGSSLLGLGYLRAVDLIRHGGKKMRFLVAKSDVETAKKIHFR

DFNB31_2, Q9P202 = biological target: T3, DFNB31_2, Q9P202
T3 sequence (Q9P202 274-371, limits assumed, looked up): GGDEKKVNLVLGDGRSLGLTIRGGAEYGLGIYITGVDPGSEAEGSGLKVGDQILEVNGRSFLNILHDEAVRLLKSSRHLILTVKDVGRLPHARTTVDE

APBA1_1, Q02410 = biological target: T4, APBA1_1, Q02410
T4 sequence (Q02410 651-752, limits assumed, looked up): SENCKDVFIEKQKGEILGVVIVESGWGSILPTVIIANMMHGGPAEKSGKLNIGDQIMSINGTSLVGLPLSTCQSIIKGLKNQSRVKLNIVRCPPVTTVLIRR

GRIP1_4, Q9Y3R0 = biological target: T5, GRIP1_4, Q9Y3R0
T5 sequence (Q9Y3R0 467-571, limits assumed, looked up): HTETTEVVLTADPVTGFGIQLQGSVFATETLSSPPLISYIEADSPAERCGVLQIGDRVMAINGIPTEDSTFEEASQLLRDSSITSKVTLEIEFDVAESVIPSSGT

SNX27, Q96L92 = biological target: SNX27, Q96L92
DLG1_3, Q12959 = biological target: DLG1_3, Q12959
AHNAK1, Q09666 = biological target: AHNAK1, Q09666
APBA1_2, Q02410 = biological target: T6, APBA1_2, Q02410
T6 sequence (Q02410 742-832, limits assumed, looked up): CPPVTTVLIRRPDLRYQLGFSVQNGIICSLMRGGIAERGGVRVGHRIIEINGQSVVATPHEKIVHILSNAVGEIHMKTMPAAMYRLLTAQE

SCRIB_2, Q14160 = biological target: SCRIB_2, Q14160
PDZD2_2, O15018 = biological target: T7, PDZD2_2, O15018
T7 sequence (O15018 329-429, limits assumed, looked up): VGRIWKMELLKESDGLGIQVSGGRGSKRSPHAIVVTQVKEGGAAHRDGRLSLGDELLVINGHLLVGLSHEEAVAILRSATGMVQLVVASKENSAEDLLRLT

TJP1_3, Q07157 = biological target: TJP1_3, Q07157
Inadl_6, Q8NI35 = biological target: Inadl_6, Q8NI35
SNTG2, Q9NY99 = biological target: T8, SNTG2, Q9NY99
T8 sequence (Q9NY99 68-166, limits assumed, looked up): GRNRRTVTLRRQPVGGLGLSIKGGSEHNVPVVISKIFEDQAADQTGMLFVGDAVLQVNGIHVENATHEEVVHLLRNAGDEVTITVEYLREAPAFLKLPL

TJP1_2, Q07157 = biological target: TJP1_2, Q07157
HTRA2, O43464 = biological target: HTRA2, O43464
DLG1_2, Q12959 = biological target: DLG1_2, Q12959
MAGI3_2, Q5TCQ9 = biological target: MAGI3_2, Q5TCQ9
Inadl_2, Q8NI35 = biological target: Inadl_2, Q8NI35
DLG3_3, Q92796 = biological target: T9, DLG3_3, Q92796
T9 sequence (Q92796 374-475, limits assumed, looked up): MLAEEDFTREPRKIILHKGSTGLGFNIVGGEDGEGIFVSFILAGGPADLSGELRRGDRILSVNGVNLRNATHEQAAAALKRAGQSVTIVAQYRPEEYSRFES

LNX1_2, Q8TBB1 = biological target: LNX1_2, Q8TBB1
GRIP1_7, Q9Y3R0 = biological target: T10, GRIP1_7, Q9Y3R0
T10 sequence (Q9Y3R0 999-1096, limits assumed, looked up): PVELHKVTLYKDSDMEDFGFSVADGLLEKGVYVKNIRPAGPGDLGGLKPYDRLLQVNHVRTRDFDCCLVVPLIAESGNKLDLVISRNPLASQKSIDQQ

MPP7, Q5T2T1 = biological target: T11, MPP7, Q5T2T1
T11 sequence (Q5T2T1 134-230, limits assumed, looked up): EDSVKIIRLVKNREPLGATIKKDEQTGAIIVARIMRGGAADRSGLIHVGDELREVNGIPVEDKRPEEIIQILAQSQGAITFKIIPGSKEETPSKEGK

TJP1_3, Q07157, sequence (Q07157 416-512): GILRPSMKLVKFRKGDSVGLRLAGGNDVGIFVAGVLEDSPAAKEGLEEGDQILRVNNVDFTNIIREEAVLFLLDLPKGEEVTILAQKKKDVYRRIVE
DLG1_2, Q12959, sequence (Q12959 314-412): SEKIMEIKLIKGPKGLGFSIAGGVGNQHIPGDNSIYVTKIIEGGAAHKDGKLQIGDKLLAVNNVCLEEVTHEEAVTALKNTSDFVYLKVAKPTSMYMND
Inadl_5, Q8NI35, sequence (Q8NI35 673-780): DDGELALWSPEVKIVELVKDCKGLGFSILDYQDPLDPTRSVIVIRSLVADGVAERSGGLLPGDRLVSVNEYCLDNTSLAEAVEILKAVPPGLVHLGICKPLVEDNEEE
AHNAK1, Q09666, sequence (Q09666 4-100): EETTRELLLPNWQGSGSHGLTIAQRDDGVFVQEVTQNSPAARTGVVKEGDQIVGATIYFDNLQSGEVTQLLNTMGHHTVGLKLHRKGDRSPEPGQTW
Inadl_2, Q8NI35, sequence (Q8NI35 238-335): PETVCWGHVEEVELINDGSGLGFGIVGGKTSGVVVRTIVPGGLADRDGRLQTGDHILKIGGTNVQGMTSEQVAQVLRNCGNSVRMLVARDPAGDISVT
TJP1_2, Q07157, sequence (Q07157 181-274): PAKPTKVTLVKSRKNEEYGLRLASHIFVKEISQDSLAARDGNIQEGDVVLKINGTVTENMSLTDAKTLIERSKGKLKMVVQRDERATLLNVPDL
SCRIB_2, Q14160, sequence (Q14160 857-960): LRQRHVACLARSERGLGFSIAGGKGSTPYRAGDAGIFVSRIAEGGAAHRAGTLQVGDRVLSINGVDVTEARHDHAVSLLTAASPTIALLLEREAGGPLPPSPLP
Inadl_6, Q8NI35, sequence (Q8NI35 1058-1167): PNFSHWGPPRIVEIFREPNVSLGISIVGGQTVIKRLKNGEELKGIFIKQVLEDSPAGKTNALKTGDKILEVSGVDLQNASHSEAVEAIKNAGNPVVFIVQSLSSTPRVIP
MAGI3_2, Q5TCQ9, sequence (Q5TCQ9 398-503): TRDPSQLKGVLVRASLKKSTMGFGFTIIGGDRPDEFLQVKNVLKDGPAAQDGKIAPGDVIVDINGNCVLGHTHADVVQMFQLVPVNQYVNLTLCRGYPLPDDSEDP
FRMPD2_3, Q68DX3, sequence (Q68DX3 1073-1166): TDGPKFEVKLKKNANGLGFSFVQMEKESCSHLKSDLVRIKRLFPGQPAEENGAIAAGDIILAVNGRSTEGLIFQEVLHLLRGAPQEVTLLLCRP
DLG1_3, Q12959, sequence (Q12959 457-571): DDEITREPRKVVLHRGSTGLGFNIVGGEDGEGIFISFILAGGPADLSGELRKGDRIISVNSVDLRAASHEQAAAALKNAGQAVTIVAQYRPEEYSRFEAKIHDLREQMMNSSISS
LNX1_2, Q8TBB1, sequence (Q8TBB1 371-470): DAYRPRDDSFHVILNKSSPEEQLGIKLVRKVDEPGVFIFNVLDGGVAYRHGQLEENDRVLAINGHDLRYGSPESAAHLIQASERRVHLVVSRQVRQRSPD
LNX1_3, Q8TBB1, sequence (Q8TBB1 500-596): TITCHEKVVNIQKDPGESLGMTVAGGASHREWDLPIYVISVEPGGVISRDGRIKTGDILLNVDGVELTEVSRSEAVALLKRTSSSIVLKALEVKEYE
HTRA2, O43464, sequence (O43464 355-458): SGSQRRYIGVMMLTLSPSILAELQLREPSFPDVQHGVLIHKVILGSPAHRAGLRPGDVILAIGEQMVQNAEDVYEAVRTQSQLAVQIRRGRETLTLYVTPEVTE
Inadl_3, Q8NI35, sequence (Q8NI35 359-469): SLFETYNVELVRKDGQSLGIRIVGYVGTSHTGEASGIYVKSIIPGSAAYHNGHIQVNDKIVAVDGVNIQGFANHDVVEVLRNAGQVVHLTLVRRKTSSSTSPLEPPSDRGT

Row | Binder | pKd (FRMPD2_3, Q68DX3) | pKd (LNX1_3, Q8TBB1) | pKd (NHERF3_4, Q5T2W1) | pKd (Inadl_5, Q8NI35) | pKd (Inadl_3, Q8NI35) | pKd (RADIL, Q96JH8) | pKd (DFNB31_2, Q9P202) | pKd (APBA1_1, Q02410) | pKd (GRIP1_4, Q9Y3R0) | pKd (SNX27, Q96L92) | pKd (DLG1_3, Q12959) | pKd (AHNAK1, Q09666) | pKd (APBA1_2, Q02410) | pKd (SCRIB_2, Q14160) | pKd (PDZD2_2, O15018) | pKd (TJP1_3, Q07157) | pKd (Inadl_6, Q8NI35) | pKd (SNTG2, Q9NY99) | pKd (TJP1_2, Q07157) | pKd (HTRA2, O43464) | also measured
1 | PEEGKKQSQC [GAGE12J, A6NER3] | below the threshold | below the threshold | below the threshold | below the threshold | below the threshold | below the threshold | below the threshold | below the threshold | below the threshold | below the threshold | below the threshold | below the threshold | below the threshold | below the threshold | 4.01 | below the threshold | below the threshold | 3.51 | below the threshold | below the threshold | pKd (DLG1_2, Q12959): below the threshold; pKd (MAGI3_2, Q5TCQ9): below the threshold; pKd (Inadl_2, Q8NI35): below the threshold; pKd (DLG3_3, Q92796): below the threshold; pKd (LNX1_2, Q8TBB1): below the threshold; pKd (GRIP1_7, Q9Y3R0): below the threshold; pKd (MPP7, Q5T2T1): below the threshold
2 | VGIERETDVL [EZH1, Q92800] | below the threshold | below the threshold | below the threshold | below the threshold | below the threshold | below the threshold | below the threshold | below the threshold | below the threshold | below the threshold | below the threshold | below the threshold | below the threshold | below the threshold | below the threshold | below the threshold | below the threshold | below the threshold | below the threshold | below the threshold | pKd (DLG1_2, Q12959): 3.85; pKd (MAGI3_2, Q5TCQ9): 4; pKd (Inadl_2, Q8NI35): below the threshold; pKd (DLG3_3, Q92796): below the threshold; pKd (LNX1_2, Q8TBB1): below the threshold; pKd (GRIP1_7, Q9Y3R0): below the threshold; pKd (MPP7, Q5T2T1): below the threshold
3 | EGGKKRESEA [APPL1, Q9UKG1] | below the threshold | below the threshold | below the threshold | below the threshold | below the threshold | below the threshold | below the threshold | below the threshold | below the threshold | below the threshold | below the threshold | below the threshold | below the threshold | below the threshold | below the threshold | below the threshold | below the threshold | below the threshold | below the threshold | below the threshold | pKd (DLG1_2, Q12959): below the threshold; pKd (MAGI3_2, Q5TCQ9): below the threshold; pKd (Inadl_2, Q8NI35): below the threshold; pKd (DLG3_3, Q92796): below the threshold; pKd (LNX1_2, Q8TBB1): below the threshold; pKd (GRIP1_7, Q9Y3R0): below the threshold; pKd (MPP7, Q5T2T1): below the threshold
4 | QLAEIAESGL [ITK, Q08881] | below the threshold | 3.66 | 3.54 | 3.58 | below the threshold | below the threshold | below the threshold | 3.52 | below the threshold | 5.4 | 3.86 | below the threshold | below the threshold | 3.6 | 3.68 | below the threshold | below the threshold | 3.82 | below the threshold | below the threshold | pKd (DLG1_2, Q12959): below the threshold; pKd (MAGI3_2, Q5TCQ9): below the threshold; pKd (Inadl_2, Q8NI35): below the threshold; pKd (DLG3_3, Q92796): 3.55; pKd (LNX1_2, Q8TBB1): below the threshold; pKd (GRIP1_7, Q9Y3R0): below the threshold; pKd (MPP7, Q5T2T1): below the threshold
5 | PKLMGVETVV [DUSP10, Q9Y6W6] | 3.61 | below the threshold | below the threshold | 3.56 | 4.51 | 4.5 | below the threshold | below the threshold | below the threshold | 5.23 | 4.52 | below the threshold | 4.08 | 3.98 | 4.22 | below the threshold | 3.53 | 4.51 | 3.67 | below the threshold | pKd (DLG1_2, Q12959): 5.61; pKd (MAGI3_2, Q5TCQ9): 5.32; pKd (Inadl_2, Q8NI35): below the threshold; pKd (DLG3_3, Q92796): 3.91; pKd (LNX1_2, Q8TBB1): 3.96; pKd (GRIP1_7, Q9Y3R0): below the threshold; pKd (MPP7, Q5T2T1): below the threshold
